Tested on: MS2 coat protein
Experiment: apparent KD of MS2 coat protein; designed switch direction (-1 OFF switch, 1 ON switch): -1; higher = weaker reporter binding
How it was run: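 Apparent KD, taken as the median over clusters for each design, was obtained by curve-fitting normalised cluster fluorescence. Designed RNA switches had been transcribed on Illumina chips by stalled E. coli RNA polymerase and titrated with SNAP-549-labelled MS2 coat protein, doubling from 0.7 or 1.5 nM to 3 µM.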

[1] = Eterna round: R95, input ligand: FMN 200 uM
[2] = Eterna round: R95, input ligand: microRNA oligo, concentration not stated
[3] = Eterna round: R95, input ligand: none
[4] = input ligand: microRNA oligo, concentration not stated

CUCCUCGUGGCGCCUAAACACAUGAGGAUCACCCAUGUACAGGCUUUUUGCCGUCUUAUAAUAAAACCGAGGAGACG [Ataesarxe] (puzzle: Sensor v3, turn-off variant 1)
apparent KD of MS2 coat protein [1]: 16.6 nM | apparent KD of MS2 coat protein [2]: 18.8 nM | apparent KD of MS2 coat protein [3]: 16.6 nM

GGCGAAGUAGGAUAUACAUGAGGAUCACCCAUGUAACCUGAUGGCGUAGGUCUUCUAUGUAGAAGGGCUGCGCC [jl-ex3-4.38 ViennaUCT mod] (Eterna round: R97, puzzle: Exclusion 3)
apparent KD of MS2 coat protein (input ligand: FMN 200 uM): 16 nM | apparent KD of MS2 coat protein (input ligand: none): 15.6 nM

GCAAGCGACUAGGCUCGUCUUAUAUUGAAAAGAUUGAAAACAUGAGGAUCACCCAUGUAUGUGGGAAAGUUGAAGUG [JR_SV3TOV2_Sub010] (puzzle: Sensor v3, turn-off variant 2)
apparent KD of MS2 coat protein [1]: 393 nM | apparent KD of MS2 coat protein [2]: 526 nM | apparent KD of MS2 coat protein [3]: 332 nM

UUAUACGUUGAGGAUAUGCGAAUAAGUAUAGUUGCAGAAGGCGAUACAUGAGGAUCACCCAUGUUCAUGGACAU [LRO-Ex6-04] (puzzle: Exclusion 6)
apparent KD of MS2 coat protein [2]: 106 nM

GUAACAUGCUGGUGAUCAUACAUGAGGAUCACCCAUGUAACAAGCUUUUUGCUCGUCUUAUAAUUUAAGAUCACCAG [Stov1/7-A3] (Eterna round: R97, puzzle: Sensor, turn-off variant 1)
apparent KD of MS2 coat protein (input ligand: FMN 200 uM): 16.3 nM | apparent KD of MS2 coat protein (input ligand: none): 16.2 nM

AAUCAUGAACGAGCUUUUUACAUGAGGAUCACCCAUGUCCUCUGCUCGUCUUGUCUUGGGCUUUUUUUGGGUUCGGG [-22.4, -44.7 kcal, A 16%] (Eterna round: R97, puzzle: Sensor, turn-off variant 1)
apparent KD of MS2 coat protein (input ligand: FMN 200 uM): 320 nM | apparent KD of MS2 coat protein (input ligand: none): 355 nM

AGUCGAAAGACCAACAUGGACAUGAGGAUCACCCAUGUACAAGCCUUUUGCUCGUCACUAUCGUCAAAAGACGAUAG [Omei Mir Offv1 A1] (Eterna round: R97, puzzle: Sensor, turn-off variant 1)
apparent KD of MS2 coat protein (input ligand: FMN 200 uM): 34.5 nM | apparent KD of MS2 coat protein (input ligand: none): 32.8 nM

UUAACAUGCUGGUGAUCAUACAUGAGGAUCACCCAUGUAACAAGCUUUUUGUUCGUCUUAUAAGAUCACCAGCAUGU [Stov1/9-B1] (Eterna round: R97, puzzle: Sensor, turn-off variant 1)
apparent KD of MS2 coat protein (input ligand: FMN 200 uM): 18.7 nM | apparent KD of MS2 coat protein (input ligand: none): 17.2 nM

CUGAGCAGACGGAGAUCCCACAUGAGGAUCACCCAUGUCUCAAAAGCUUUUUGCUUGUCUUAUUCUCCUCUGUUCUC [Arorza] (Eterna round: R96, puzzle: Sensor v3, turn-off variant 1)
apparent KD of MS2 coat protein (input ligand: FMN 200 uM): 13.7 nM | apparent KD of MS2 coat protein [4]: 72.2 nM | apparent KD of MS2 coat protein (input ligand: none): 15.8 nM

CCUCUAUUUGUGAGGAUAUCGGUAAACUGGAUUGUCGAGAAGGCACAUGAGGAUCACCCAUGUAUUGAACAGCA [JR_BMEx4_Sub021] (Eterna round: R97, puzzle: Brourd's mod of Exclusion 4)
apparent KD of MS2 coat protein (input ligand: FMN 200 uM): 203 nM | apparent KD of MS2 coat protein (input ligand: none): 31.2 nM

UAAUACAUCUAUGGGAGUAACAUGAGGAUCACCCAUGUAUGUCUUGUUUUUUGUUCGUCAUAGACUUUCUGAUCAGU [JR_SV3TOV1_Sub029] (puzzle: Sensor v3, turn-off variant 1)
apparent KD of MS2 coat protein [1]: 47.9 nM | apparent KD of MS2 coat protein [2]: 175 nM | apparent KD of MS2 coat protein [3]: 52.2 nM

CAGCUGAAUGUCAGGAUAUCUAGAGCUGCGGCUCUAGAGAAGGGACAUGAGGAUCACCCAUGUCACUCCAGCUG [BmEx4/3-B3] (Eterna round: R97, puzzle: Brourd's mod of Exclusion 4)
apparent KD of MS2 coat protein (input ligand: FMN 200 uM): 21.3 nM | apparent KD of MS2 coat protein (input ligand: none): 16.4 nM

GACCCAACCGUUAGGAUAUAGUCGACCUACGGCGACUAGAAGGAACAUGAGGAUCACCCAUGUGUGCGCACAAC [Eternabot (Original) Solution 25] (Eterna round: R97, puzzle: Brourd's mod of Exclusion 4)
apparent KD of MS2 coat protein (input ligand: FMN 200 uM): 190 nM | apparent KD of MS2 coat protein (input ligand: none): 60.8 nM

UUUUAACAUGAGGAUCACCCAUGUGAGGAUAUCGAAAUUUAUAUUUAUAUUUAUAAAACGAGAAGGCACAUUUU [JMF 91] (puzzle: Exclusion 1)
apparent KD of MS2 coat protein [2]: 113 nM

GUCAGCUCGUCAGGAUAUGAACAUGAGGAUCACCCAUGUAAGAUCAAGCUGCUUCGGCAGCAAGUUCAGAAGGGACGAGCUGAU [ENG2/10-B2] (Eterna round: R96, puzzle: Exclusion NG 2)
apparent KD of MS2 coat protein (input ligand: FMN 200 uM): 167 nM | apparent KD of MS2 coat protein [4]: 136 nM | apparent KD of MS2 coat protein (input ligand: none): 104 nM

GCUCGUGGGCAAGGAUAUCCUACGCUGUUCUGGUUCGUGUCUGUUACAUGAGGAUCACCCAUGUGGGAGAAGGUGCACCAGGGU [Design 50] (Eterna round: R96, puzzle: Exclusion NG 2)
apparent KD of MS2 coat protein (input ligand: FMN 200 uM): 22.8 nM | apparent KD of MS2 coat protein [4]: 12.3 nM | apparent KD of MS2 coat protein (input ligand: none): 18.3 nM
